The text below walks through data of publication doi:10.1101/2022.06.02.494603 (bioRxiv, 2022).

In the assay the target is optineurin, C-terminal myc-FLAG-tagged (UniProt Q96CV9 1-577). Briefly: co-IP.
optineurin, C-terminal myc-FLAG-tagged, sequence (Q96CV9 whole entry): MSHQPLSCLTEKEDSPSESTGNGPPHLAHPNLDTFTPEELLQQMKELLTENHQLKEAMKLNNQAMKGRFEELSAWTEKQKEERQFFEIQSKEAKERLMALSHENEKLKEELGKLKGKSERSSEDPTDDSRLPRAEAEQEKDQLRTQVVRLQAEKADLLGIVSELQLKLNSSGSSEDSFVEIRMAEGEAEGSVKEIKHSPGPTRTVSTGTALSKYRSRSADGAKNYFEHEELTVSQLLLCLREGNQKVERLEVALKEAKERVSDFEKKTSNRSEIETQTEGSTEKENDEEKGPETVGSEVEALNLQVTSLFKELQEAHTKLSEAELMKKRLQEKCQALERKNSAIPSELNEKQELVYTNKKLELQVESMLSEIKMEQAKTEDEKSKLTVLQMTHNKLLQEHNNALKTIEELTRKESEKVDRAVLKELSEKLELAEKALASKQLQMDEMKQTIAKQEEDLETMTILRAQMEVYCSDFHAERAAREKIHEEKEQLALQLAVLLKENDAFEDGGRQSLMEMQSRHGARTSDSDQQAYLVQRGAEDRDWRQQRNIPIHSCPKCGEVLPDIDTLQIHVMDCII

B1: TBK1 I710N, untagged (natural protein, human, UniProt Q9UHD2 1-729, looked up)
chain: MQSTSNHLWLLSDILGQGATANVFRGRHKKTGDLFAIKVFNNISFLRPVDVQMREFEVLKKLNHKNIVKLFAIEEETTTRHKVLIMEFCPCGSLYTVLEEPSNAYGLPESEFLIVLRDVVGGMNHLRENGIVHRDIKPGNIMRVIGEDGQSVYKLTDFGAARELEDDEQFVSLYGTEEYLHPDMYERAVLRKDHQKKYGATVDLWSIGVTFYHAATGSLPFRPFEGPRRNKEVMYKIITGKPSGAISGVQKAENGPIDWSGDMPVSCSLSRGLQVLLTPVLANILEADQEKCWGFDQFFAETSDILHRMVIHVFSLQQMTAHKIYIHSYNTATIFHELVYKQTKIISSNQELIYEGRRLVLEPGRLAQHFPKTTEENPIFVVSREPLNTIGLIYEKISLPKVHPRYDLDGDASMAKAITGVVCYACRIASTLLLYQELMRKGIRWLIELIKDDYNETVHKKTEVVITLDFCIRNIEKTVKVYEKLMKINLEAAELGEISDIHTKLLRLSSSQGTIETSLQDIDSRLSPGGSLADAWAHQEGTHPKDRNVEKLQVLLNCMTEIYYQFKKDKAERRLAYNEEQIHKFDKQKLYYHATKAMTHFTDECVKKYEAFLNKSEEWIRKMLHLRKQLLSLTNQCFDIEEEVSKYQEYTNELQETLPQKMFTASSGIKHTMTPIYPSSNTLVEMTLGMKKLKEEMEGVVKELAENNHNLERFGSLTMDGGLRNVDCL
For the molecule B1, the “TBK1 bound to OPTN relative to wild type” value is 0.07 relative to TBK1 WT.

B2: TBK1 M559R, untagged (natural protein, human, UniProt Q9UHD2 1-729, looked up)
chain: MQSTSNHLWLLSDILGQGATANVFRGRHKKTGDLFAIKVFNNISFLRPVDVQMREFEVLKKLNHKNIVKLFAIEEETTTRHKVLIMEFCPCGSLYTVLEEPSNAYGLPESEFLIVLRDVVGGMNHLRENGIVHRDIKPGNIMRVIGEDGQSVYKLTDFGAARELEDDEQFVSLYGTEEYLHPDMYERAVLRKDHQKKYGATVDLWSIGVTFYHAATGSLPFRPFEGPRRNKEVMYKIITGKPSGAISGVQKAENGPIDWSGDMPVSCSLSRGLQVLLTPVLANILEADQEKCWGFDQFFAETSDILHRMVIHVFSLQQMTAHKIYIHSYNTATIFHELVYKQTKIISSNQELIYEGRRLVLEPGRLAQHFPKTTEENPIFVVSREPLNTIGLIYEKISLPKVHPRYDLDGDASMAKAITGVVCYACRIASTLLLYQELMRKGIRWLIELIKDDYNETVHKKTEVVITLDFCIRNIEKTVKVYEKLMKINLEAAELGEISDIHTKLLRLSSSQGTIETSLQDIDSRLSPGGSLADAWAHQEGTHPKDRNVEKLQVLLNCRTEIYYQFKKDKAERRLAYNEEQIHKFDKQKLYYHATKAMTHFTDECVKKYEAFLNKSEEWIRKMLHLRKQLLSLTNQCFDIEEEVSKYQEYTNELQETLPQKMFTASSGIKHTMTPIYPSSNTLVEMTLGMKKLKEEMEGVVKELAENNHILERFGSLTMDGGLRNVDCL
In the case of B2, the “TBK1 bound to OPTN relative to wild type” value was 0.05 relative to TBK1 WT.

B3: TBK1 Q565P, untagged (natural protein, human, UniProt Q9UHD2 1-729, looked up)
chain: MQSTSNHLWLLSDILGQGATANVFRGRHKKTGDLFAIKVFNNISFLRPVDVQMREFEVLKKLNHKNIVKLFAIEEETTTRHKVLIMEFCPCGSLYTVLEEPSNAYGLPESEFLIVLRDVVGGMNHLRENGIVHRDIKPGNIMRVIGEDGQSVYKLTDFGAARELEDDEQFVSLYGTEEYLHPDMYERAVLRKDHQKKYGATVDLWSIGVTFYHAATGSLPFRPFEGPRRNKEVMYKIITGKPSGAISGVQKAENGPIDWSGDMPVSCSLSRGLQVLLTPVLANILEADQEKCWGFDQFFAETSDILHRMVIHVFSLQQMTAHKIYIHSYNTATIFHELVYKQTKIISSNQELIYEGRRLVLEPGRLAQHFPKTTEENPIFVVSREPLNTIGLIYEKISLPKVHPRYDLDGDASMAKAITGVVCYACRIASTLLLYQELMRKGIRWLIELIKDDYNETVHKKTEVVITLDFCIRNIEKTVKVYEKLMKINLEAAELGEISDIHTKLLRLSSSQGTIETSLQDIDSRLSPGGSLADAWAHQEGTHPKDRNVEKLQVLLNCMTEIYYPFKKDKAERRLAYNEEQIHKFDKQKLYYHATKAMTHFTDECVKKYEAFLNKSEEWIRKMLHLRKQLLSLTNQCFDIEEEVSKYQEYTNELQETLPQKMFTASSGIKHTMTPIYPSSNTLVEMTLGMKKLKEEMEGVVKELAENNHILERFGSLTMDGGLRNVDCL
For the molecule B3, the “TBK1 bound to OPTN relative to wild type” value was 0.14 relative to TBK1 WT.

B4: TBK1 R47H, untagged (natural protein, human, UniProt Q9UHD2 1-729, looked up)
chain: MQSTSNHLWLLSDILGQGATANVFRGRHKKTGDLFAIKVFNNISFLHPVDVQMREFEVLKKLNHKNIVKLFAIEEETTTRHKVLIMEFCPCGSLYTVLEEPSNAYGLPESEFLIVLRDVVGGMNHLRENGIVHRDIKPGNIMRVIGEDGQSVYKLTDFGAARELEDDEQFVSLYGTEEYLHPDMYERAVLRKDHQKKYGATVDLWSIGVTFYHAATGSLPFRPFEGPRRNKEVMYKIITGKPSGAISGVQKAENGPIDWSGDMPVSCSLSRGLQVLLTPVLANILEADQEKCWGFDQFFAETSDILHRMVIHVFSLQQMTAHKIYIHSYNTATIFHELVYKQTKIISSNQELIYEGRRLVLEPGRLAQHFPKTTEENPIFVVSREPLNTIGLIYEKISLPKVHPRYDLDGDASMAKAITGVVCYACRIASTLLLYQELMRKGIRWLIELIKDDYNETVHKKTEVVITLDFCIRNIEKTVKVYEKLMKINLEAAELGEISDIHTKLLRLSSSQGTIETSLQDIDSRLSPGGSLADAWAHQEGTHPKDRNVEKLQVLLNCMTEIYYQFKKDKAERRLAYNEEQIHKFDKQKLYYHATKAMTHFTDECVKKYEAFLNKSEEWIRKMLHLRKQLLSLTNQCFDIEEEVSKYQEYTNELQETLPQKMFTASSGIKHTMTPIYPSSNTLVEMTLGMKKLKEEMEGVVKELAENNHILERFGSLTMDGGLRNVDCL
In the case of B4, the “TBK1 bound to OPTN relative to wild type” value is 3.23 relative to TBK1 WT.

B5: TBK1 Q581H, untagged (natural protein, human, UniProt Q9UHD2 1-729, looked up)
chain: MQSTSNHLWLLSDILGQGATANVFRGRHKKTGDLFAIKVFNNISFLRPVDVQMREFEVLKKLNHKNIVKLFAIEEETTTRHKVLIMEFCPCGSLYTVLEEPSNAYGLPESEFLIVLRDVVGGMNHLRENGIVHRDIKPGNIMRVIGEDGQSVYKLTDFGAARELEDDEQFVSLYGTEEYLHPDMYERAVLRKDHQKKYGATVDLWSIGVTFYHAATGSLPFRPFEGPRRNKEVMYKIITGKPSGAISGVQKAENGPIDWSGDMPVSCSLSRGLQVLLTPVLANILEADQEKCWGFDQFFAETSDILHRMVIHVFSLQQMTAHKIYIHSYNTATIFHELVYKQTKIISSNQELIYEGRRLVLEPGRLAQHFPKTTEENPIFVVSREPLNTIGLIYEKISLPKVHPRYDLDGDASMAKAITGVVCYACRIASTLLLYQELMRKGIRWLIELIKDDYNETVHKKTEVVITLDFCIRNIEKTVKVYEKLMKINLEAAELGEISDIHTKLLRLSSSQGTIETSLQDIDSRLSPGGSLADAWAHQEGTHPKDRNVEKLQVLLNCMTEIYYQFKKDKAERRLAYNEEHIHKFDKQKLYYHATKAMTHFTDECVKKYEAFLNKSEEWIRKMLHLRKQLLSLTNQCFDIEEEVSKYQEYTNELQETLPQKMFTASSGIKHTMTPIYPSSNTLVEMTLGMKKLKEEMEGVVKELAENNHILERFGSLTMDGGLRNVDCL
For B5, the “TBK1 bound to OPTN relative to wild type” value was 0.2 relative to TBK1 WT.

B6: TBK1 R440Q, untagged (natural protein, human, UniProt Q9UHD2 1-729, looked up)
chain: MQSTSNHLWLLSDILGQGATANVFRGRHKKTGDLFAIKVFNNISFLRPVDVQMREFEVLKKLNHKNIVKLFAIEEETTTRHKVLIMEFCPCGSLYTVLEEPSNAYGLPESEFLIVLRDVVGGMNHLRENGIVHRDIKPGNIMRVIGEDGQSVYKLTDFGAARELEDDEQFVSLYGTEEYLHPDMYERAVLRKDHQKKYGATVDLWSIGVTFYHAATGSLPFRPFEGPRRNKEVMYKIITGKPSGAISGVQKAENGPIDWSGDMPVSCSLSRGLQVLLTPVLANILEADQEKCWGFDQFFAETSDILHRMVIHVFSLQQMTAHKIYIHSYNTATIFHELVYKQTKIISSNQELIYEGRRLVLEPGRLAQHFPKTTEENPIFVVSREPLNTIGLIYEKISLPKVHPRYDLDGDASMAKAITGVVCYACRIASTLLLYQELMQKGIRWLIELIKDDYNETVHKKTEVVITLDFCIRNIEKTVKVYEKLMKINLEAAELGEISDIHTKLLRLSSSQGTIETSLQDIDSRLSPGGSLADAWAHQEGTHPKDRNVEKLQVLLNCMTEIYYQFKKDKAERRLAYNEEQIHKFDKQKLYYHATKAMTHFTDECVKKYEAFLNKSEEWIRKMLHLRKQLLSLTNQCFDIEEEVSKYQEYTNELQETLPQKMFTASSGIKHTMTPIYPSSNTLVEMTLGMKKLKEEMEGVVKELAENNHILERFGSLTMDGGLRNVDCL
For B6, the “TBK1 bound to OPTN relative to wild type” value was 0.17 relative to TBK1 WT.

B7: TBK1 L94S, untagged (natural protein, human, UniProt Q9UHD2 1-729, looked up)
chain: MQSTSNHLWLLSDILGQGATANVFRGRHKKTGDLFAIKVFNNISFLRPVDVQMREFEVLKKLNHKNIVKLFAIEEETTTRHKVLIMEFCPCGSSYTVLEEPSNAYGLPESEFLIVLRDVVGGMNHLRENGIVHRDIKPGNIMRVIGEDGQSVYKLTDFGAARELEDDEQFVSLYGTEEYLHPDMYERAVLRKDHQKKYGATVDLWSIGVTFYHAATGSLPFRPFEGPRRNKEVMYKIITGKPSGAISGVQKAENGPIDWSGDMPVSCSLSRGLQVLLTPVLANILEADQEKCWGFDQFFAETSDILHRMVIHVFSLQQMTAHKIYIHSYNTATIFHELVYKQTKIISSNQELIYEGRRLVLEPGRLAQHFPKTTEENPIFVVSREPLNTIGLIYEKISLPKVHPRYDLDGDASMAKAITGVVCYACRIASTLLLYQELMRKGIRWLIELIKDDYNETVHKKTEVVITLDFCIRNIEKTVKVYEKLMKINLEAAELGEISDIHTKLLRLSSSQGTIETSLQDIDSRLSPGGSLADAWAHQEGTHPKDRNVEKLQVLLNCMTEIYYQFKKDKAERRLAYNEEQIHKFDKQKLYYHATKAMTHFTDECVKKYEAFLNKSEEWIRKMLHLRKQLLSLTNQCFDIEEEVSKYQEYTNELQETLPQKMFTASSGIKHTMTPIYPSSNTLVEMTLGMKKLKEEMEGVVKELAENNHILERFGSLTMDGGLRNVDCL
In the case of B7, the “TBK1 bound to OPTN relative to wild type” value is 0.04 relative to TBK1 WT.

B8: TBK1 R134H, untagged (natural protein, human, UniProt Q9UHD2 1-729, looked up)
chain: MQSTSNHLWLLSDILGQGATANVFRGRHKKTGDLFAIKVFNNISFLRPVDVQMREFEVLKKLNHKNIVKLFAIEEETTTRHKVLIMEFCPCGSLYTVLEEPSNAYGLPESEFLIVLRDVVGGMNHLRENGIVHHDIKPGNIMRVIGEDGQSVYKLTDFGAARELEDDEQFVSLYGTEEYLHPDMYERAVLRKDHQKKYGATVDLWSIGVTFYHAATGSLPFRPFEGPRRNKEVMYKIITGKPSGAISGVQKAENGPIDWSGDMPVSCSLSRGLQVLLTPVLANILEADQEKCWGFDQFFAETSDILHRMVIHVFSLQQMTAHKIYIHSYNTATIFHELVYKQTKIISSNQELIYEGRRLVLEPGRLAQHFPKTTEENPIFVVSREPLNTIGLIYEKISLPKVHPRYDLDGDASMAKAITGVVCYACRIASTLLLYQELMRKGIRWLIELIKDDYNETVHKKTEVVITLDFCIRNIEKTVKVYEKLMKINLEAAELGEISDIHTKLLRLSSSQGTIETSLQDIDSRLSPGGSLADAWAHQEGTHPKDRNVEKLQVLLNCMTEIYYQFKKDKAERRLAYNEEQIHKFDKQKLYYHATKAMTHFTDECVKKYEAFLNKSEEWIRKMLHLRKQLLSLTNQCFDIEEEVSKYQEYTNELQETLPQKMFTASSGIKHTMTPIYPSSNTLVEMTLGMKKLKEEMEGVVKELAENNHILERFGSLTMDGGLRNVDCL
In the case of B8, the “TBK1 bound to OPTN relative to wild type” value is 2.53 relative to TBK1 WT.
